Laboratory results from article PMC2962499 (The Journal of Biological Chemistry, 2010).

B1: SpRpn10 VWA domain (residues 1-195) (domain or fragment, Schizosaccharomyces pombe, UniProt O94444 1-195, looked up)
chain: MVLEATMILIDNSEWMINGDYIPTRFEAQKDTVHMIFNQKINDNPENMCGLMTIGDNSPQVLSTLTRDYGKFLSAMHDLPVRGNAKFGDGIQIAQLALKHRENKIQRQRIVAFVGSPIVEDEKNLIRLAKRMKKNNVAIDIIHIGELQNESALQHFIDAANSSDSCHLVSIPPSPQLLSDLVNQSPIGQGVVASQ
B2: Schizosaccharomyces pombe Rpn10, full-length (residues 1-243) (natural protein)
chain: MVLEATMILIDNSEWMINGDYIPTRFEAQKDTVHMIFNQKINDNPENMCGLMTIGDNSPQVLSTLTRDYGKFLSAMHDLPVRGNAKFGDGIQIAQLALKHRENKIQRQRIVAFVGSPIVEDEKNLIRLAKRMKKNNVAIDIIHIGELQNESALQHFIDAANSSDSCHLVSIPPSPQLLSDLVNQSPIGQGVVASQNQFEYGVDPNLDVELALALELSMAEERARQEVAAQKSSEETEDKKMQE

Columns and labels:
[1] = molecular target: T1, SpRpn12 fragment (residues 1-250) (Schizosaccharomyces pombe, UniProt P50524 1-250); experiment: NMR titration
T1 sequence (looked up): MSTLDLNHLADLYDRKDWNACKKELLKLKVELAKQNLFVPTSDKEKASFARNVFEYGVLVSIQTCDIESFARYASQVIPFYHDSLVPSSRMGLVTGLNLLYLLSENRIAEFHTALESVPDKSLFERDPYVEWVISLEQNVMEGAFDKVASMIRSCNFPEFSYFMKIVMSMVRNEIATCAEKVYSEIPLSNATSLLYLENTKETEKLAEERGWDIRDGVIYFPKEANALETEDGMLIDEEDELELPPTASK

monoubiquitin (bovine) = monoubiquitin (bovine) (bovine, UniProt P0CG53 1-76); experiment: ITC

Binder	binding result [1]	Kd (monoubiquitin (bovine)) [µM]
B1	binds	
B2		139
